Where two headings read alike, the source gives them in different places.
Experiments:
human HA-UBE2J1 = target: T1, human HA-UBE2J1 (human, UniProt Q9Y385 1-318); experiment: co-IP; HEK293 cells co-transfected with FLAG-tagged E3 and HA-tagged E2; lysed by sonication in Pierce IP buffer (25 mM Tris-HCl pH 7.4, 150 mM NaCl, 1 mM EDTA, 1% NP-40, 5% glycerol); anti-HA magnetic beads, 4 C, 1 h; washed with IP buffer with 2 mM DTT; immunoblot with anti-FLAG; band intensities by ImageJ (IP lane to input lane)
T1 construct: E2 ubiquitin-conjugating enzyme UBE2J1, human, full-length open reading frame; also called pCAG-humanUBE2J1; source: HEK293 cells, transfected (pCAG1.1, Lipofectamine 3000), in lysate; not shown: HA, N-terminal, kept
T1 sequence (looked up): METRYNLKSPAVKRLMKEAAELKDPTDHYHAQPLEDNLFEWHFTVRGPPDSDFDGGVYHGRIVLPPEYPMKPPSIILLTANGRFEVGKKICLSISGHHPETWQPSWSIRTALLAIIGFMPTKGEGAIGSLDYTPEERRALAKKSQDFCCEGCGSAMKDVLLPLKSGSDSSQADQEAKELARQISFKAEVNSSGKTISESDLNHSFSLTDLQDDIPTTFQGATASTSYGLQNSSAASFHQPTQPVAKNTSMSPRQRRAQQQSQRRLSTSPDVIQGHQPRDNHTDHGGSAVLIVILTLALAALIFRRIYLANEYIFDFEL

mouse HA-UBE2J1 = target: T2, mouse HA-UBE2J1 (mouse, UniProt Q9JJZ4 1-318); experiment: as above; conditions: partners not purified
T2 construct: E2 ubiquitin-conjugating enzyme UBE2J1, mouse, full-length open reading frame; also called pCAG-mouseUbe2J1; source: HEK293 cells, transfected (pCAG1.1, Lipofectamine 3000), in lysate; not shown: HA, N-terminal, kept
T2 sequence (looked up): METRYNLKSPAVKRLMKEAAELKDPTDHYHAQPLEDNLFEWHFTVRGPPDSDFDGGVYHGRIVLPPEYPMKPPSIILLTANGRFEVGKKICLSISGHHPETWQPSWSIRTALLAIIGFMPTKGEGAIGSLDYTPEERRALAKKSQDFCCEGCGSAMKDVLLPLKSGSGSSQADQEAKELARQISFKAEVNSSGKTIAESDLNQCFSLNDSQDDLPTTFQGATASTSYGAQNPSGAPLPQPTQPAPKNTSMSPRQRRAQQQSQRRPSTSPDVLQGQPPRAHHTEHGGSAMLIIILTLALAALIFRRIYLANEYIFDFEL

human RNF133-mutant-FLAG (RING finger domain deleted) (from UniProt Q8WVZ7 1-376) (enzyme)
IP:input ratio (band intensity) (human HA-UBE2J1): 0.24

B1: mouse RNF133-FLAG (RING finger protein 133) (enzyme, UniProt Q14B02 1-382, looked up)
chain: MNPLQTSTWQNQAPSFWLLRFSFIWLVSQKCCTASAVWTAYMNISFHVGNRMLSELGETGVFGRSSILKRVAGVVVPPEGKIQNACDPNTTFILPRNKEPWIALIERGGCAFTQKIKVASEHGARGVIIYNFPGTGNQVFPMSHQAFEDIVVVMIGNIKGMEILHLIRKGVHVTVMVEVGRKHVIWLNHYFVSFMIVTTATLAYFTFYHIRRLWVARIENRRWKRLTRELKKAFGQLQVRVLKEGDEEVNPNADSCVICFEAYKPNEIVRILTCKHFFHKNCIDPWILAHGTCPMCKCDILKALGIQMDIEDGTDSLQVLMSNELPGTLSPVEEETNYELPPARTSSKVTHVQEHPTSSANAGSQPPEAEETSHPSHGQQVL
notes: also called mouse RNF133-WT; pCAG-mouseRnf133; source: HEK293 cells, transfected (pCAG1.1, Lipofectamine 3000), in lysate; not shown: FLAG, C-terminal, kept
IP:input ratio (band intensity) (mouse HA-UBE2J1): 3.95

B2: human RNF133-FLAG (RING finger protein 133) (enzyme, UniProt Q8WVZ7 1-376, looked up)
chain: MHLLKVGTWRNNTASSWLMKFSVLWLVSQNCCRASVVWMAYMNISFHVGNHVLSELGETGVFGRSSTLKRVAGVIVPPEGKIQNACNPNTIFSRSKYSETWLALIERGGCTFTQKIKVATEKGASGVIIYNVPGTGNQVFPMFHQAFEDVVVVMIGNLKGTEIFHLIKKGVLITAVVEVGRKHIIWMNHYLVSFVIVTTATLAYFIFYHIHRLCLARIQNRRWQRLTTDLQNTFGQLQLRVVKEGDEEINPNGDSCVICFERYKPNDIVRILTCKHFFHKNCIDPWILPHGTCPICKCDILKVLGIQVVVENGTEPLQVLMSNELPETLSPSEEETNNEVSPAGTSDKVIHVEENPTSQNNDIQPHSVVEDVHPSP
notes: also called human RNF133-WT; RNF133 wild-type; source: HEK293 cells, transfected (pCAG1.1, Lipofectamine 3000), in lysate; not shown: FLAG, C-terminal, kept
IP:input ratio (band intensity) (human HA-UBE2J1; partners not purified): 1.74
